Laboratory results published in doi:10.1101/2021.03.04.434028 (bioRxiv, 2021).
Where two headings read alike, the source gives them in different places.

B2: HigA antitoxin of the His6-HigBHigA complex (natural protein, Proteus vulgaris (plasmid Rts1), UniProt Q7A224 1-104, looked up)
chain: MRQFKVSHPGEMIARDLEDMGVSGRRFAHNIGVTPATVSRLLAGKTALTPSLSIRIAAALGSTPEFWLRLQSNYDLRQLENQIDTSGIVLYGESNEQQQNAQEH

Experiments:
[1] = tested on: HigB (of wild-type HigB2HigA2 complex);HigA (of wild-type HigB2HigA2 complex) (Proteus vulgaris (plasmid Rts1);Proteus vulgaris (plasmid Rts1)); assay: EMSA; conditions: binding buffer pH not stated ([…]
[2] = biological target: the molecule itself; assay: crystal structure
[3] = biological target: the molecule itself; assay: crystal structure; remark: listed apart in the source
[4] = biological target: B2; assay: crystal structure
[5] = biological target: T1, HigA antitoxin of the complexes analysed by size exclusion chromatography (Proteus vulgaris (plasmid Rts1), UniProt Q7A224 1-104); assay: SEC
T1 sequence (looked up): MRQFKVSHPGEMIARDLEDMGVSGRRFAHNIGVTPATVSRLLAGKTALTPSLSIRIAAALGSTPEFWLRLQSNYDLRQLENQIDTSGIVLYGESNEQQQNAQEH

O1(scrambled)-O2 (O2 only)
Kd [1]: 240 nM

O1-O2(scrambled) (O1 only)
Kd [1]: 360 nM

B1: HigA antitoxin with C-terminal His6 tag of the HigBHigA-His6 complex (selenomethionine-derivatized) (natural protein, Proteus vulgaris (plasmid Rts1), UniProt Q7A224 1-104, looked up)
chain: MRQFKVSHPGEMIARDLEDMGVSGRRFAHNIGVTPATVSRLLAGKTALTPSLSIRIAAALGSTPEFWLRLQSNYDLRQLENQIDTSGIVLYGESNEQQQNAQEH
modifications: selenomethionine-derivatized
stoichiometry N [2]: 2

B2
stoichiometry N [3]: 2

B3: HigB toxin of the His6-HigBHigA complex (natural protein)
chain: MIKSFKHKGLKLLFEKGVTSGVPAQDVDRINDRLQAIDTATEIGELNRQIYKLHPLKGDREGYWSITVRANWRITFQFINGDAYILNYEDYH
binding result [4]: binds

B4: Wild-type HigB toxin of the HigB2HigA2 complex analysed by size exclusion chromatography (natural protein)
chain: MIKSFKHKGLKLLFEKGVTSGVPAQDVDRINDRLQAIDTATEIGELNRQIYKLHPLKGDREGYWSITVRANWRITFQFINGDAYILNYEDYH
binding result [5]: binds

B5: HigB(L5ext), HigB with loop 5 extended by NGNG (natural protein)
chain: MIKSFKHKGLKLLFEKGVTSGVPAQDVDRINDRLQAIDTATEIGELNRQIYKLHPLKGDREGYWSITVRANWRITFQFINGDNGNGAYILNYEDYH
binding result [5]: binds
